{"source": "patent US20250122303A1", "about": "(HUMMINGBIRD BIOSCIENCE PTE, published 2025)", "key": {"His-tagged human HER3 [1]": {"molecular_target": "T1, His-tagged human HER3 (human, UniProt P21860 20-643)", "T1 construct": "Antigen of the BLI experiments and of the HER2-Fc dimerisation ELISA; also called HER3 His; not shown: His tag", "assay": "BLI (Octet QK384), antibody on anti-human IgG capture tips, His-tagged human HER3 in solution, global one-site fit", "experimental": "(§1) The anti-HER3 antibody clones in IgG1 format were analysed for binding affinity to human HER3. Bio-Layer Interferometry (BLI) experiments were performed using the Octet QK384 system (ForteBio). anti-Human IgG Capture (AHC) Octet sensor tips (Pall ForteBio, USA) were used to anti-HER3 antibodies (25 nM). All measurements were performed at 25° C. with agitation at 1000 rpm. […] Sensograms were referenced for buffer effects and then fitted using the Octet QK384 user software (Pall ForteBio, USA). Kinetic responses were subjected to a global fitting using a one site binding model to obtain values for association (Kₒₙ), dissociation (Koff) rate constants and the equilibrium dissociation constant (KD). Only curves that could be reliably fitted with the software (R²>0.90) were included in the analysis."}, "His-tagged human HER3 [2]": {"molecular_target": "T1, His-tagged human HER3", "assay": "BLI (Octet QK384), antibody on anti-human IgG capture tips, His-tagged human HER3 35-278 nM, global 1:1 fit", "experimental": "as §1"}, "His-tagged human HER3 [3]": {"molecular_target": "T1, His-tagged human HER3", "assay": "BLI (Octet QK384), antibody on anti-human IgG capture tips, His-tagged human HER3 in solution, global 1:1 fit, R^2 = 0.9946, kon Error 5.99E+03; Response 0.119 / 0.2877 / 0.4777 / 0.6639 at 35 / 69 / 139 / 278 nM", "experimental": "as §1"}, "His-tagged human HER3 [4]": {"molecular_target": "T1, His-tagged human HER3", "assay": "BLI (Octet QK384), antibody on anti-human IgG capture tips, His-tagged human HER3 in solution, global 1:1 fit, R^2 = 0.9951, kon Error 5.36E+03; Response 0.0037 / 0.1082 / 0.2868 / 0.3903 at 35 / 69 / 139 / 278 nM", "experimental": "as §1"}, "His-tagged human HER3 [5]": {"molecular_target": "T1, His-tagged human HER3", "assay": "BLI (Octet QK384), antibody on anti-human IgG capture tips, His-tagged human HER3 in solution, global 1:1 fit, R^2 = 0.9915, kon Error 7.36E+03; Response 0.114 / 0.2569 / 0.4134 / 0.5768 at 35 / 69 / 139 / 278 nM", "experimental": "as §1"}, "His-tagged human HER3 [6]": {"molecular_target": "T1, His-tagged human HER3", "assay": "BLI (Octet QK384), antibody on anti-human IgG capture tips, His-tagged human HER3 35-278 nM, global 1:1 fit; kdis Error 1.16E-04", "experimental": "as §1"}, "His-tagged human HER3 [7]": {"molecular_target": "T1, His-tagged human HER3", "assay": "BLI (Octet QK384), antibody on anti-human IgG capture tips, His-tagged human HER3 in solution, global 1:1 fit, R^2 = 0.9957, kon Error 3.54E+03; Response 0.0338 / 0.0911 / 0.1967 / 0.3885 at 35 / 69 / 139 / 278 nM", "experimental": "as §1"}, "His-tagged human HER3 [8]": {"molecular_target": "T1, His-tagged human HER3", "assay": "BLI (Octet QK384), antibody on anti-human IgG capture tips, His-tagged human HER3 35-278 nM, global 1:1 fit; kdis Error 1.00E-04", "experimental": "as §1"}, "His-tagged human HER3 [9]": {"molecular_target": "T1, His-tagged human HER3", "assay": "BLI (Octet QK384), antibody on anti-human IgG capture tips, His-tagged human HER3 in solution, global 1:1 fit, R^2 = 0.9954, kon Error 4.57E+03; Response 0.0786 / 0.1929 / 0.3283 / 0.5147 at 35 / 69 / 139 / 278 nM", "experimental": "as §1"}, "rat HER3": {"molecular_target": "T2, rat HER3 (rat, UniProt Q62799 20-641, limits assumed)", "T2 construct": "also called rat homologue of HER3 (Sino Biological Inc.); R. norvegicus HER3", "T2 sequence (Q62799 20-641 limits assumed)": "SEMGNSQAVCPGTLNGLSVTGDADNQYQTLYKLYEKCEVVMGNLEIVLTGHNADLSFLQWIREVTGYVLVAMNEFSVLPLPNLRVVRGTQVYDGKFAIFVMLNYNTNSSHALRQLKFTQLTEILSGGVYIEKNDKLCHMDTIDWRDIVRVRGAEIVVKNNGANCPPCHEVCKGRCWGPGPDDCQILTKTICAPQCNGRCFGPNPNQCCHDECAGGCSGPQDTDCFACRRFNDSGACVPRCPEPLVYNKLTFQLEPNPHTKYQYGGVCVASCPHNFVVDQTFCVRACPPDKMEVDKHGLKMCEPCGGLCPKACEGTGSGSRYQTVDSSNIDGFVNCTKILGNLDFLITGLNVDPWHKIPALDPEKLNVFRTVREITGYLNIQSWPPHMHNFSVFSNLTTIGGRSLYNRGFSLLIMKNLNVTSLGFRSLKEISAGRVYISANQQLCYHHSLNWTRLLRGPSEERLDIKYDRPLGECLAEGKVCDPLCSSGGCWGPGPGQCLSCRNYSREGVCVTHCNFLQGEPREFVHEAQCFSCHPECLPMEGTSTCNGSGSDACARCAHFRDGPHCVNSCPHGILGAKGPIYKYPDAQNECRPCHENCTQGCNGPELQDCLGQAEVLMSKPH", "assay": "ELISA, plate coated with 0.1 ug/ml rat HER3, antibody titrated, absorbance 450 nm", "experimental": "(§2) ELISAs were used to determine the binding specificity of the antibodies. The antibodies were analysed for binding to human HER3 polypeptide, as well as respective mouse, rat and monkey homologues of HER3 (Sino Biological Inc., China). The antibodies were also analysed for their ability to bind to human EGFR and human HER2 (Sino Biological Inc., China).\n(§3) ELISAs were carried out according to standard protocols. Briefly, 96-well plates (Nunc, Denmark) were coated with 0.1 μg/ml of target polypeptide in phosphate-buffered saline (PBS) for 16 h at 4° C. After blocking for 1 h with 1% BSA in Tris buffer saline (TBS) at room temperature, the anti-HER3 antibody was serially diluted with the highest concentration being 10 μg/ml, and added to the plate. Post 1 h incubation at room temperature, plates were washed three times with TBS containing 0.05% Tween 20 (TBS-T) and were then incubated with a HRP-conjugated […] antibody (Life Technologies, Inc., USA) for 1 h at room temperature. After washing, plates were developed with colorimetric detection substrate 3,3′,5,5′-tetramethylbenzidine (Turbo-TMB; Pierce, USA) for 10 min. The reaction was stopped with 2M H₂SO₄, and OD was measured at 450 nm."}, "mouse HER3": {"molecular_target": "T3, mouse HER3 (mouse, UniProt Q61526 20-641)", "T3 construct": "also called mouse homologue of HER3 (Sino Biological Inc.); M. musculus HER3", "T3 sequence (Q61526 20-641 limits assumed)": "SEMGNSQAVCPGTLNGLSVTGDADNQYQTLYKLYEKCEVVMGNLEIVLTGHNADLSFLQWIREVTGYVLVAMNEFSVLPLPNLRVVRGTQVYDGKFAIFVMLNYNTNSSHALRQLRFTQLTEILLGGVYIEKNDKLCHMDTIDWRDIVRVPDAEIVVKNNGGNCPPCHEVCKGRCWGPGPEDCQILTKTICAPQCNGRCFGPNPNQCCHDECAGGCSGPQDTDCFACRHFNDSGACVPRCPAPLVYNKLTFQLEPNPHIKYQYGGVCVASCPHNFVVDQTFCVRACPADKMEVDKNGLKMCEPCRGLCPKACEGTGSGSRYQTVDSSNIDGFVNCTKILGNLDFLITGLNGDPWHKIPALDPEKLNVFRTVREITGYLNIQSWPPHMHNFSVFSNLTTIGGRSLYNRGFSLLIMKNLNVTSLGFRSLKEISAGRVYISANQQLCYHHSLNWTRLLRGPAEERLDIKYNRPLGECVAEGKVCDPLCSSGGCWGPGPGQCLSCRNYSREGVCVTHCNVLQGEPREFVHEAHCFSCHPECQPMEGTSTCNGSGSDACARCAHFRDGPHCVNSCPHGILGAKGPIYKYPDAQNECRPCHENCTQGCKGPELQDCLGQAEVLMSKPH", "assay": "ELISA, plate coated with 0.1 ug/ml mouse HER3, antibody titrated, absorbance 450 nm", "experimental": "as §2, §3"}, "human EGFR": {"molecular_target": "T4, human EGFR (human, UniProt P00533 25-645)", "T4 construct": "also called human HER1 (EGFR) (Sino Biological Inc.)", "assay": "ELISA, plate coated with 0.1 ug/ml human EGFR, antibody titrated, absorbance 450 nm", "experimental": "as §2, §3"}, "human HER2": {"molecular_target": "T5, human HER2 (human, UniProt P04626 23-652)", "T5 construct": "also called human HER2 (Sino Biological Inc.)", "assay": "ELISA, plate coated with 0.1 ug/ml human HER2, antibody titrated, absorbance 450 nm", "experimental": "as §2, §3"}, "[10]": {"molecular_target": "T6, human HER3 expressed on cells (HEK293 HER3 O/E cells) (human, UniProt P21860 20-1342)", "T6 construct": "Also used here for HER3 on U2OS cells of the PathHunter kit and on cancer cell lines; also called HEK293 cells transfected with vector encoding human HER3; human HER3-expressing cells", "assay": "flow cytometry, HEK293 cells overexpressing human HER3, 20 ug/ml antibody, FITC anti-Fc secondary; same antibody on WT HEK293: 17.31", "experimental": "(§4) The cells were washed thrice with FACS buffer (PBS with 5 mM EDTA and 0.5% BSA) and resuspended in FITC-conjugated anti-FC antibody (Invitrogen, USA) for 40 min at 2-8° C. Cells were washed again and resuspended in 200 μL of FACS flow buffer (PBS with 5 mM EDTA) for flow cytometric analysis using MACSQuant 10 (Miltenyi Biotec, Germany). After acquisition, all raw data were analyzed using Flowlogic software. Cells were gated using forward and side scatter profile percentage of positive cells was determined for native and overexpressing cell populations."}, "[11]": {"molecular_target": "T6, human HER3 expressed on cells (HEK293 …)", "assay": "flow cytometry, HEK293 cells overexpressing human HER3, 20 ug/ml antibody, FITC anti-Fc secondary; same antibody on WT HEK293: 17.31", "experimental": "as §4", "remark": "listed apart in the source"}}, "note": "Like-named read-outs stand apart in the source and are kept apart here."}
{"binder": "anti-HER3 clone 10D1_c93 IgG1 (antibody, V domains shown, Humanised 10D1 variant, IgG1/kappa) VH: DVQLQEWGAGLLKPSETLSLTCAVTGYSITSGYSWHWIRQFPGNGLEWIGSIHYSGGTNYNPSLKSRITISRDTSKNQFSLRLSSVTAADTAVYFCARMTTAPRYPFDYWGQGTLVTVSS VL: DIVMTQSPSSLSASVGDRVTITCKASQIVGSNVAWYQQKPGKSPKPLIYSASYLYSDVPSRFSGSGSGTDFTMTISSLQPEDVATYYCQQYSSHPLTFGPGTKVEIKR", "values": [{"measurement": "Kd", "setting": "His-tagged human HER3 [1]", "result": "< 1", "unit": "pM"}, {"measurement": "koff", "setting": "His-tagged human HER3 [2]", "result": "< 1e-07", "unit": "s⁻¹"}, {"measurement": "kon", "setting": "His-tagged human HER3 [3]", "result": 188000, "unit": "M⁻¹ s⁻¹"}]}
{"binder": "anti-HER3 clone 10D1_c76 IgG1 (antibody, V domains shown, Humanised 10D1 variant, IgG1/kappa) VH: DVQLQEWGAGLLKPSETLSLTCAVTGYSITSGYSWHWIRQFPGNGLEWIGSIHYSGGTNYNPSLKSRITISRDTSKNQFSLKLSSVTAADTAVYFCARMTTAPRYPFDYWGQGTLVTVSS VL: DIVMTQSPSSLSASGGDRVTITCKASQIVGYNVAWYQQKPGKSPKPLIYSASYLYSDVPSRFSASGSGTDFTLTISSLQPEDVAEYFCQQYSSHPLTFGPGTKVEIKR", "values": [{"measurement": "Kd", "setting": "His-tagged human HER3 [1]", "result": "< 1", "unit": "pM"}, {"measurement": "koff", "setting": "His-tagged human HER3 [2]", "result": "< 1e-07", "unit": "s⁻¹"}, {"measurement": "kon", "setting": "His-tagged human HER3 [4]", "result": 148000, "unit": "M⁻¹ s⁻¹"}]}
{"binder": "anti-HER3 clone 10D1_c87 IgG1 (antibody, V domains shown, Humanised 10D1 variant, IgG1/kappa) VH: DVQLQEWGAGLLKPSETLSLTCAVTGYSITSGYSWHWIRQFPGNGLEWIGSIHYSGGTNYNPSLKSRITISRDTSKNQFSLRLSSVTAADTAVYFCARMTTAPRYPFDYWGQGTLVTVSS VL: DIVMTQSPSSLSASVGDRVTITCKASQIVGSNVAWYQQMPGKSPEPLIYSASYLYSDVPSRFSGSGSGTDFTMTISSLQPEDVATYYCQQYSSHPLTFGPGTKVEIKR", "values": [{"measurement": "Kd", "setting": "His-tagged human HER3 [1]", "result": "< 1", "unit": "pM"}, {"measurement": "koff", "setting": "His-tagged human HER3 [2]", "result": "< 1e-07", "unit": "s⁻¹"}, {"measurement": "kon", "setting": "His-tagged human HER3 [5]", "result": 188000, "unit": "M⁻¹ s⁻¹"}]}
{"binder": "anti-HER3 clone 10D1_c85o2 IgG1 (antibody, V domains shown, Humanised 10D1 variant, IgG1/kappa; also called 10D1_c8502) VH: DVQLQEWGAGLLKPSETLSLTCAVTGYSITSGYSWHWIRQFPGKGLEWIGSIRYSGGTNYNPSLKSRITISRDTSKNQFSLKLGSVTAADTAVYFCARGTTAPRYPFDYWGQGTLVTVSS VL: DIVMTQSPSSLSASVGDRVTITCKASQIVGSNVAWYQQKPGKSPKPLIYSARYQYSGVPFRFSGSGSGTDFTLTISSLQPEDVATYYCQQYSSHPLTFGPGTKVEIKR", "values": [{"measurement": "Kd", "setting": "His-tagged human HER3 [1]", "result": 17300, "unit": "pM"}, {"measurement": "koff", "setting": "His-tagged human HER3 [6]", "result": 0.00168, "unit": "s⁻¹"}, {"measurement": "kon", "setting": "His-tagged human HER3 [7]", "result": 97400, "unit": "M⁻¹ s⁻¹"}]}
{"binder": "anti-HER3 clone 10D1_11B IgG1 (antibody, V domains shown, Humanised 10D1 variant, IgG1/kappa; also called v11b78L; C78 v11b) VH: DVQLQEWGAGLLKPSETLSLTCAVYGYSITSGYSWHWIRQPPGKGLEWIGSIHYSGGTNYNPSLKSRVTISRDTSKNQFSLKLSSVTAADTAVYYCARMTTAPRYPFDYWGQGTLVTVSS VL: DIVMTQSPSSLSASVGDRVTITCKASQIVGSNVAWYQQKPGKSPKPLIYSASYGYSDVPSRFSGSGSGTDFTLTISSLRPEDVATYYCQQYSSHPLTFGPGTKVEIKR", "values": [{"measurement": "Kd", "setting": "His-tagged human HER3 [1]", "result": 410, "unit": "pM"}, {"measurement": "koff", "setting": "His-tagged human HER3 [8]", "result": "6.01e-05", "unit": "s⁻¹"}, {"measurement": "kon", "setting": "His-tagged human HER3 [9]", "result": 147000, "unit": "M⁻¹ s⁻¹"}]}
{"binder": "anti-HER3 clone 4-35-B2 IgG1 (antibody, V domains shown, Human-mouse chimeric IgG1/kappa) VH: EIQLQQSGPELVKPGASVKVSCKASGYSFTDYNMYWVKQSHGKSLEWIGHINPYNGGTTYNQKFKGRATLTVDKSSSTAFMHLNSLTSEDSAVYFCVSLRWGAMDYWGQGTSVTVSS VL: QIVLTQSPALMSASPGEKVTMTCSASSSVSYMYWYQQKPRSSPKPWIYLTSNLASGVPARFSGSGSGTSYSLTISSMEAEDAATYYCQQWNSNPYTFGGGTKLEIKR", "values": [{"measurement": "binding result", "setting": "rat HER3", "result": "binds"}, {"measurement": "binding result", "setting": "mouse HER3", "result": "binds"}, {"measurement": "binding result", "setting": "human EGFR", "result": "binds"}, {"measurement": "binding result", "setting": "human HER2", "result": "binds"}, {"measurement": "Kd", "setting": "His-tagged human HER3 [1]", "result": 80900, "unit": "pM"}, {"measurement": "% Parent (HE3 positive)", "setting": "[10]", "result": 43.2, "unit": "%"}, {"measurement": "% Parent (HE3 positive)", "setting": "[11]", "result": 43.2, "unit": "%"}]}
